From US20190322765A1 (Hoffmann-La Roche, published 2019)
Values joined by “and” are separate entries in the source; they are usually repeats but may differ in a detail not shown here. Equal values may be shown once.

Tests used:
[1] = target: T1, murine IL-2R βγ heterodimer (β knob γ hole Fc fusion) (murine, UniProt P16297 27-240; P34902 23-263); experiment: SPR, receptor on CM5, 37°C, 1:1 fit
T1 construct: also called Mu IL-2R βγ; mouse IL-2R βγ heterodimer; not shown: Fc knob/hole part
T1 sequence (looked up) 1: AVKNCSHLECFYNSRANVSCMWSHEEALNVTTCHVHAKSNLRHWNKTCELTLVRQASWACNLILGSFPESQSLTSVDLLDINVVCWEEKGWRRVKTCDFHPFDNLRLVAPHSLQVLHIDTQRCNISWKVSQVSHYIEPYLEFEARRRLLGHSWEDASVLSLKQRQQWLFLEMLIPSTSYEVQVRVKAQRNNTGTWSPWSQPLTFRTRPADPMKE
T1 sequence (looked up) 2: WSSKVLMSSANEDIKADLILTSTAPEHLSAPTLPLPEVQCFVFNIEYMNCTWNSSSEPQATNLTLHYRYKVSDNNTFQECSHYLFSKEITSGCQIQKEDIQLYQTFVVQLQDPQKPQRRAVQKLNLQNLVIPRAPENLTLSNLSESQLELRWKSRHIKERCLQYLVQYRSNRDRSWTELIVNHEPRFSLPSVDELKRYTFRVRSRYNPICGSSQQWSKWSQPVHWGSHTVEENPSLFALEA

[2] = target: T2, human IL-2R βγ heterodimer, subunit-Fc knobs-into-holes fusion (human); experiment: SPR, receptor on CM5, 37°C, 1:1 fit
T2 construct: The entries may hold a leader peptide; also called Hu IL-2R βγ; human IL2-R β knob γ hole heterodimer

[3] = target: T3, cynomolgus IL-2R βγ heterodimer (β knob γ hole Fc fusion) (cynomolgus); experiment: SPR, receptor on CM5, 37°C, 1:1 fit
T3 construct: also called Cyno IL-2R βγ

[4] = target: T4, murine IL-2R α-subunit, recombinant monomeric (murine, UniProt P01590 22-236, limits assumed); experiment: SPR, receptor on CM5, 25°C
T4 construct: also called Mu IL-2R α
T4 sequence (looked up): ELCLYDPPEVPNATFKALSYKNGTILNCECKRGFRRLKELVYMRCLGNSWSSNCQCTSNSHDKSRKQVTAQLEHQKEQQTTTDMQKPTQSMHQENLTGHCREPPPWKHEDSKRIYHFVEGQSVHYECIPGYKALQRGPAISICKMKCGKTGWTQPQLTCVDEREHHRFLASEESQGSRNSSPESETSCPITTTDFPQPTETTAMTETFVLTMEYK

[5] = target: T5, cynomolgus IL-2R α-subunit, recombinant monomeric (cynomolgus, UniProt H6WS54 22-240); experiment: SPR, receptor on CM5, 25°C
T5 construct: also called Cyno IL-2R α
T5 sequence: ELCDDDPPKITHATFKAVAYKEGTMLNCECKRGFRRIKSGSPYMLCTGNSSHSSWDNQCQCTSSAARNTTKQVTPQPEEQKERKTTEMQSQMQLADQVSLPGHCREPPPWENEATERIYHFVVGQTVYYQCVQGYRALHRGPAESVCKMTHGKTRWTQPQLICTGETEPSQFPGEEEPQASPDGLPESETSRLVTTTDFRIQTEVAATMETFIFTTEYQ

[6] = target: T6, human IL-2R α-subunit, monomeric, with AcTev cleavage site and Avi His tag (human); experiment: SPR, receptor on CM5, 25°C
T6 construct: also called Hu IL-2R α; CD25
T6 chain: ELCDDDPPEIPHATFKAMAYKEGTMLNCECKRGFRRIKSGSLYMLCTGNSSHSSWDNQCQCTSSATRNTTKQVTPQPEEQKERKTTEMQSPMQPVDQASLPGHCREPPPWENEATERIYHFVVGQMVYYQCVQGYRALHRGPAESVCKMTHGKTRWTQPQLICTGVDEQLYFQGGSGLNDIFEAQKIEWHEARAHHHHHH

[7] = target: FAP on GM05389 fibroblasts; experiment: FACS on GM05389 fibroblasts, surface-bound construct detected with secondary antibody after the times shown (internalization analysis); concentration not shown
human FAP-His = target: T7, human FAP-His (human, UniProt Q12884 27-760); experiment: SPR bridging: construct captured on immobilized human IL-2R βγ, human FAP analyte, 1:1 fit, 25°C
T7 construct: also called Hu FAP; His-tagged human FAP; not shown: His tag

[8] = target: T1, murine IL-2R βγ heterodimer (β knob γ …); experiment: SPR, receptor on CM5, 25°C, 1:1 fit
[9] = target: T2, human IL-2R βγ heterodimer, subunit-Fc …; experiment: SPR, receptor on CM5, 25°C, 1:1 fit
[10] = target: T3, cynomolgus IL-2R βγ heterodimer (β knob …); experiment: SPR, receptor on CM5, 25°C, 1:1 fit
[11] = target: T8, human FAP expressed on stably transfected HEK293 cells (human, UniProt Q12884 1-760); experiment: FACS on FAP-expressing HEK cells
T8 construct: whole, on cells

[12] = target: T8, human FAP expressed on stably …; experiment: FACS on HEK 293-human FAP cells, median fluorescence against concentration
[13] = target: T9, human DPPIV on transfected HEK 293 cells (human, UniProt P27487 1-766); experiment: FACS on HEK 293-human DPPIV cells, with HEK mock-transfected cells, cells only and sec. antibody as controls; concentration not shown
T9 construct: whole, on cells; also called CD26

[14] = target: T2, human IL-2R βγ heterodimer, subunit-Fc …; experiment: SPR, receptor on CM5, 25°C, kinetic
[15] = target: T6, human IL-2R α-subunit, monomeric, with …; experiment: SPR, receptor on CM5, 25°C, kinetic

B1: 29B11 Fab-IL-2 qm-Fab (other)
chain: EVQLLESGGGLVQPGGSLRLSCAASGFTFSSYAMSWVRQAPGKGLEWVSAIIGSGGITYYADSVKGRFTISRDNSKNTLYLQMNSLRAEDTAVYYCAKGWFGGFNYWGQGTLVTVSSASTKGPSVFPLAPSSKSTSGGTAALGCLVKDYFPEPVTVSWNSGALTSGVHTFPAVLQSSGLYSLSSVVTVPSSSLGTQTYICNVNHKPSNTKVDKKVEPKSCDSGGGGSGGGGSGGGGAPASSSTKKTQLQLEHLLLDLQMILNGINNYKNPKLTRMLTAKFAMPKKATELKHLQCLEEELKPLEEVLNGAQSKNFHLRPRDLISNINVIVLELKGSETTFMCEYADETATIVEFLNRWITFAQSIISTLTSGGGGSGGGGSGGGGEVQLLESGGGLVQPGGSLRLSCAASGFTFSSYAMSWVRQAPGKGLEWVSAIIGSGGITYYADSVKGRFTISRDNSKNTLYLQMNSLRAEDTAVYYCAKGWFGGFNYWGQGTLVTVSSASTKGPSVFPLAPSSKSTSGGTAALGCLVKDYFPEPVTVSWNSGALTSGVHTFPAVLQSSGLYSLSSVVTVPSSSLGTQTYICNVNHKPSNTKVDKKVEPKSCD
light: EIVLTQSPGTLSLSPGERATLSCRASQSVTSSYLAWYQQKPGQAPRLLINVGSRRATGIPDRFSGSGSGTDFTLTISRLEPEDFAVYYCQQGIMLPPTFGQGTKVEIKRTVAAPSVFIFPPSDEQLKSGTASVVCLLNNFYPREAKVQWKVDNALQSGNSQESVTEQDSKDSTYSLSSTLTLSKADYEKHKVYACEVTHQGLSSPVTKSFNRGEC
notes: Fab-IL-2-Fab immunoconjugate against FAP with quadruple mutant IL-2
Question: For B1, which Kd [1] is on record?
Answer: 44 nM and 42 nM

Question: What about the Kd [2] of the same binder?
Answer: 13.1 nM and 13 nM

Question: And the Kd [3]?
Answer: 16.7 nM and 18.1 nM

Question: Does B1 bind [4]?
Answer: no binding (tested: 25 nM)

Question: Does B1 bind [5]?
Answer: no binding (tested: 25 nM)

Question: Does B1 bind [6]?
Answer: no binding (tested: 25 nM)

Question: Does B1 bind [7]?
Answer: binds

Question: And the Kd (human FAP-His)?
Answer: 0.89 nM

Question: And the Kd [8]?
Answer: 60 nM and 63 nM

Question: What about the Kd [9] of the same binder?
Answer: 12 nM and 7.4 nM

Question: What about the Kd [10] of the same binder?
Answer: 7.8 nM and 8.4 nM

Question: And the EC50 [11]?
Answer: 0.85 nM

Question: And the “EC50 (read off the curve)” value [12]?
Answer: ~20 nM

Question: Does B1 bind [13]?
Answer: no binding

B2: MHLG1-KV9 Fab-IL-2 qm-Fab (other)
chain: EVQLVESGGGLVKPGGSLRLSCAASGFTFSNYWMNWVRQAPGKGLEWVAEIRLKSNNFGRYYAASVKGRFTISRDDSKNTLYLQMNSLKTEDTAVYYCTTYGNYVGHYFDHWGQGTTVTVSSASTKGPSVFPLAPSSKSTSGGTAALGCLVKDYFPEPVTVSWNSGALTSGVHTFPAVLQSSGLYSLSSVVTVPSSSLGTQTYICNVNHKPSNTKVDKKVEPKSCDSGGGGSGGGGSGGGGAPASSSTKKTQLQLEHLLLDLQMILNGINNYKNPKLTRMLTAKFAMPKKATELKHLQCLEEELKPLEEVLNGAQSKNFHLRPRDLISNINVIVLELKGSETTFMCEYADETATIVEFLNRWITFAQSIISTLTSGGGGSGGGGSGGGGEVQLVESGGGLVKPGGSLRLSCAASGFTFSNYWMNWVRQAPGKGLEWVAEIRLKSNNFGRYYAASVKGRFTISRDDSKNTLYLQMNSLKTEDTAVYYCTTYGNYVGHYFDHWGQGTTVTVSSASTKGPSVFPLAPSSKSTSGGTAALGCLVKDYFPEPVTVSWNSGALTSGVHTFPAVLQSSGLYSLSSVVTVPSSSLGTQTYICNVNHKPSNTKVDKKVEPKSCD
light: DIQLTQSPSFLSASVGDRVTITCKASQNVDTNVAWYQQKPGQAPRPLIYSASYRYTGVPSRFSGSGSGTEFTLTISSLQPEDFATYYCQQYNSYPLTFGGGTKVEIKRTVAAPSVFIFPPSDEQLKSGTASVVCLLNNFYPREAKVQWKVDNALQSGNSQESVTEQDSKDSTYSLSSTLTLSKADYEKHKVYACEVTHQGLSSPVTKSFNRGEC
notes: Fab-IL-2-Fab immunoconjugate against MCSP with quadruple mutant IL-2; also called MHLG1 KV9 MCSP-targeted Fab-IL2QM-Fab
Question: What does the source list for B2?
Answer: Kd [14]: 7.3 nM and 10.7 nM; binding result [15]: no binding (tested: 33.3 nM)
